Assay results taken from publication PMC12220977 (2025).
Substitutions are numbered along the chain they refer to. Each block holds one molecule with its values, some of them ahead of it.

How the values were obtained:
[1] = biological target: PAI-1WT (wild-type plasminogen activator inhibitor 1, recombinant) (UniProt P05121); test: SPR; competition: 250 nM PAI-1WT preincubated with increasing concentrations of SMB, then flowed over immobilised full-length SorLA; HBS-P buffer with 1.0 mM CaCl2, pH 7.4, 25°C
[2] = biological target: T1, Soluble full-length SorLA (sortilin-related receptor 1) (UniProt Q92673 82-2137); test: SPR
[3] = biological target: T2, SorLA VPS10 domain (vacuolar protein sorting 10 domain); test: SPR
T2 chain: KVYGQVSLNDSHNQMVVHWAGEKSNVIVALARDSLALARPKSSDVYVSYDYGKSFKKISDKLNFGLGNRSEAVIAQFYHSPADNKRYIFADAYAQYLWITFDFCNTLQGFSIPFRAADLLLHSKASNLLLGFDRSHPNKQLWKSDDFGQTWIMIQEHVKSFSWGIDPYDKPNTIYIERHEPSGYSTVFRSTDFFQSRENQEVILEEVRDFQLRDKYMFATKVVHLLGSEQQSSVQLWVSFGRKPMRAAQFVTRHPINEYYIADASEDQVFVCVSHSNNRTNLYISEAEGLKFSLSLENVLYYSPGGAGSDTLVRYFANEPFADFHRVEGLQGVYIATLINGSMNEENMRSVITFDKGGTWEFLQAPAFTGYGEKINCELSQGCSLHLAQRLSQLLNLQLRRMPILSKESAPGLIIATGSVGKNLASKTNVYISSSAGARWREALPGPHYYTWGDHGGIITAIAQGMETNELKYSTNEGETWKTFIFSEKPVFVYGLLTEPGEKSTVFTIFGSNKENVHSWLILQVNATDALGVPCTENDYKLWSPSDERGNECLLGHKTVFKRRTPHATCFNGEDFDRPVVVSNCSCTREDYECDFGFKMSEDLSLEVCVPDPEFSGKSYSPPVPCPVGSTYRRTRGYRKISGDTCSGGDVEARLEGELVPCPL

[4] = biological target: T1, Soluble full-length SorLA …; test: SPR; SorLA or its VPS10 domain immobilised on a CM5 chip (5,000 and 2,500 RU); PAI-1 flowed over; HBS-P buffer with 1.0 mM CaCl2, pH 7.4, 25°C, 20 uL/min; equilibrium analysis (Req/Rmax), single binding site

IC50 [1]: 464 nM
Molecule: Somatomedin B (SMB) domain of vitronectin (VTN) (from UniProt P04004 20-63) (domain or fragment)

Kd [2]: 102 nM | Kd [3]: 1590 nM | Kd [4]: 126 nM
B1: PAI-1WT (wild-type plasminogen activator inhibitor 1, recombinant) (natural protein)
chain: VHHPPSYVAHLASDFGVRVFQQVAQASKDRNVVFSPYGVASVLAMLQLTTGGETQQQIQAAMGFKIDDKGMAPALRHLYKELMGPWNKDEISTTDAIFVQRDLKLVQGFMPHFFRLFRSTVKQVDFSEVERARFIINDWVKTHTKGMISHLLGTGAVDQLTRLVLVNALYFNGQWKTPFPDSSTHRRLFHKSDGSTVSVPMMAQTNKFNYTEFTTPDGHYYDILELPYHGDTLSMFIAAPYEKEVPLSALTNILSAQLISHWKGNMTRLPRLLVLPKFSLETEVDLRKPLENLGMTDMFRQFQADFTSLSDQEPLHVALALQKVKIEVNESGTVASSSTAVIVSARMAPEEIIIDRPFLFVVRHNPTGTVLFMGQVMEP

Kd [2]: 491 nM | Kd [4]: 540 nM
B2: PAI-1AK (PAI-1 Arg101Ala, Gln123Lys) (natural protein)
chain: B1 chain with R101A, Q123K
